Values joined by “and” are separate entries in the source; they are usually repeats but may differ in a detail not shown here. Identical values can stand only once. Like-named read-outs stand apart in the source and are kept apart here.
Legend:
[1] = Stability of insulin in simulated intestinal fluid (HPLC); details: for stability of insulin / Insulin % of theoretical: 37° C.
Protocol: The SIF solutions were prepared with and without pancreatic enzyme. SIF pH 7.5 was prepared as per the USP NF 26 guidelines. SIF was prepared by addition of 6.8 g monobasic potassium phosphate and 10 g of pancreatin into a suitable vessel, and deionized water was added to reach a total volume of one liter. If necessary, the pH was adjusted to 7.5 by addition of 0.2 N sodium hydroxide. A second SIF solution omitting the pancreatin, an intestinal enzyme, was also prepared.
Four 50 ml samples of SIF (two with pancreatin and two without) were placed into a jacketed vessel connected to a circulating water bath set at 37° C. The solutions were stirred with magnetic stir bars for ten minutes to allow the solutions to reach 37° C. and reach thermal equilibrium.

Glucose = Glucose after subcutaneous (SC) administration of insulin; assay type: in vivo, rat
[2] = Insulin and 4-CNAB stability in simulated gastric fluid (HPLC); details: 37° C.
Protocol: The SGF was prepared with and without pepsin, a gastric enzyme. SGF pH 1.2 was prepared as per the USP NF 26 guidelines. 2 g sodium chloride and 3.2 g of pepsin were weighed and added to a suitable container, and deionized water was added to reach one liter in volume. If necessary, the pH was adjusted to 1.2 by addition of concentrated HCl or NaOH. A second SGF solution omitting the pepsin was also prepared.
Four 50 ml samples of SGF (two with pepsin and two without) were placed into a jacketed vessel connected to a circulating water bath set at 37° C. The solutions were stirred with magnetic stir bars for ten minutes to allow the solutions to reach 37° C. and reach thermal equilibrium.
The term “% of theoretical” as used herein, means the percent of the concentration (mg/mL) of withdrawn solution at the time-point the sample was taken as compared to the theoretical concentration (mg/mL) of the measuring component for experiment. The standard of deviation for the HPLC analysis is ±5%.

[3] = IV
From the text: (§1) This value was assumed to be constant in the estimates of absolute bioavailability.

[4] = Estimates of bioavailability (absolute, portal, relative to subcutaneous)
From the text: as §1
The portal bioavailability provides an estimate of drug absorption from oral delivery. […] This value is used to estimate bioavailability relative to subcutaneous.

[5] = dose 8 μg/kg, individual animals
[6] = dose 9 μg/kg, individual animals

Insulin: Recombinant human zinc insulin
stability of insulin ([1]; SIF in presence of the enzyme (pancreatin)): degrades | Insulin % of theoretical ([1]; SIF no enzymes, with 4-CNAB, 0 minutes): 100.2% | Insulin % of theoretical ([1]; SIF no enzymes, with 4-CNAB, 4 minutes): 106.3% | Insulin % of theoretical ([1]; SIF no enzymes, with 4-CNAB, 45 minutes): 99.1% | Insulin % of theoretical ([1]; SIF no enzymes, with 4-CNAB, 24 hours): 105.6% | Insulin % of theoretical ([1]; SIF with pancreatin, with 4-CNAB, 0 minutes): 58.9% | Insulin % of theoretical ([1]; SIF with pancreatin, with 4-CNAB, 4 minutes): 19.3% | Insulin % of theoretical ([1]; SIF with pancreatin, with 4-CNAB, 6 minutes): 5.4% | Insulin % of theoretical ([1]; SIF without 4-CNAB or enzymes, 0 minutes): 92.9% | Insulin % of theoretical ([1]; SIF without 4-CNAB or enzymes, 15 minutes): 92.7% | Insulin % of theoretical ([1]; SIF without 4-CNAB or enzymes, 1 hour): 92.7% | Insulin % of theoretical ([1]; SIF without 4-CNAB or enzymes, 2 hours): 94.6% | Insulin % of theoretical ([1]; SIF without 4-CNAB or enzymes, 24 hours): 100.4% | stability of insulin ([1]; SIF without pancreatin): stable | insulin remained ([1]; SIF, first sampling time point (0 minutes)): 58.9% and 66.9% | Glucose (Glucose; study 3, 0.05 mg/kg, time 0): 83 mg/dL | Glucose (Glucose; study 3, 0.05 mg/kg, time 15): 66 mg/dL | Glucose (Glucose; study 3, 0.05 mg/kg, time 30): 60 mg/dL | Glucose (Glucose; study 3, 0.05 mg/kg, time 45): 61 mg/dL | Glucose (Glucose; study 3, 0.05 mg/kg, time 60): 73 mg/dL | Glucose (Glucose; study 3, 0.05 mg/kg, time 120): 98 mg/dL | Glucose (Glucose; study 3, 0.05 mg/kg, time 180): 105 mg/dL | Glucose (Glucose; study 4, 0.05 mg/kg, time 0): 73 mg/dL | Glucose (Glucose; study 4, 0.05 mg/kg, time 15): 66 mg/dL | Glucose (Glucose; study 4, 0.05 mg/kg, time 30): 59 mg/dL | Glucose (Glucose; study 4, 0.05 mg/kg, time 45): 64 mg/dL | Glucose (Glucose; study 4, 0.05 mg/kg, time 60): 72 mg/dL | Glucose (Glucose; study 4, 0.05 mg/kg, time 90): 88 mg/dL | Glucose (Glucose; study 4, 0.05 mg/kg, time 120): 110 mg/dL | Glucose (Glucose; study 5, 0.05 mg/kg, time 0): 60 mg/dL | Glucose (Glucose; study 5, 0.05 mg/kg, time 15): 42 mg/dL | Glucose (Glucose; study 5, 0.05 mg/kg, time 30): 38 mg/dL | Glucose (Glucose; study 5, 0.05 mg/kg, time 45): 42 mg/dL | Glucose (Glucose; study 5, 0.05 mg/kg, time 60): 48 mg/dL | Glucose (Glucose; study 5, 0.05 mg/kg, time 90): 52 mg/dL | Glucose (Glucose; study 5, 0.05 mg/kg, time 120): 66 mg/dL | Glucose (Glucose; study 6, 0.05 mg/kg, time 0): 68 mg/dL | Glucose (Glucose; study 6, 0.05 mg/kg, time 15): 40 mg/dL | Glucose (Glucose; study 6, 0.05 mg/kg, time 30): 39 mg/dL | Glucose (Glucose; study 6, 0.05 mg/kg, time 45): 36 mg/dL | Glucose (Glucose; study 6, 0.05 mg/kg, time 60): 32 mg/dL | Glucose (Glucose; study 6, 0.05 mg/kg, time 90): 35 mg/dL | Glucose (Glucose; study 6, 0.05 mg/kg, time 120): 39 mg/dL | Glucose (Glucose; study 7, 0.05 mg/kg, time 0): 65 mg/dL | Glucose (Glucose; study 7, 0.05 mg/kg, time 15): 45 mg/dL | Glucose (Glucose; study 7, 0.05 mg/kg, time 30): 39 mg/dL | Glucose (Glucose; study 7, 0.05 mg/kg, time 45): 40 mg/dL | Glucose (Glucose; study 7, 0.05 mg/kg, time 60): 42 mg/dL | Glucose (Glucose; study 7, 0.05 mg/kg, time 90): 42 mg/dL | Glucose (Glucose; study 7, 0.05 mg/kg, time 120): 50 mg/dL | Glucose (Glucose; study 8, 0.05 mg/kg, time 0): 70 mg/dL | Glucose (Glucose; study 8, 0.05 mg/kg, time 15): 59 mg/dL | Glucose (Glucose; study 8, 0.05 mg/kg, time 30): 64 mg/dL | Glucose (Glucose; study 8, 0.05 mg/kg, time 45): 69 mg/dL | Glucose (Glucose; study 8, 0.05 mg/kg, time 60): 73 mg/dL | Glucose (Glucose; study 8, 0.05 mg/kg, time 90): 89 mg/dL | Glucose (Glucose; study 8, 0.05 mg/kg, time 120): 106 mg/dL | insulin degraded ([2]; SGF containing pepsin, first sampling point): 97% | insulin remained ([2]; SGF containing pepsin, first sampling point (0 minutes)): 3.0% | Insulin % of theoretical ([2]; SGF no enzymes, with 4-CNAB, 30 minutes): 105.7% | Insulin % of theoretical ([2]; SGF no enzymes, with 4-CNAB, 24 h): 0% | Insulin % of theoretical ([2]; SGF with pepsin, with 4-CNAB, 0 minutes): 3.0% | Insulin % of theoretical ([2]; SGF with pepsin, without 4-CNAB, 0 minutes): 3.0% | Insulin % of theoretical ([2]; SGF without enzymes, without 4-CNAB, 10 minutes): 100.4% | Insulin % of theoretical ([2]; SGF without enzymes, without 4-CNAB, 30 minutes): 100.1% | Insulin % of theoretical ([2]; SGF without enzymes, without 4-CNAB, 1 h): 99.4% | Insulin % of theoretical ([2]; SGF without enzymes, without 4-CNAB, 24 h): 0% | time insulin is stable ([2]; SGF without pepsin): ≥ 2 h | AUC0->∞ ([3]; dose 8 μg/kg, X ± SD (n = 3)): 100.7 ± 2.4 ng·min/mL | AUC0->∞/Dose ([3]; dose 8 μg/kg, X ± SD (n = 3)): 0.0126 ± 0.0003 kg·min/mL | Vd ([3]; dose 8 μg/kg, X ± SD (n = 3)): 157 ± 5 mL/kg | AUC0->∞ [3, 5]: 99.35 ng·min/mL and 99.32 ng·min/mL and 103.4 ng·min/mL | C0->∞/Dose [3, 5]: 0.0063 kg/mL and 0.0066 kg/mL and 0.0062 kg/mL | Co [3, 5]: 50.67 ng/mL and 52.64 ng/mL and 49.63 ng/mL | Vd [3, 5]: 157.88 mL/kg and 151.98 mL/kg and 161.19 mL/kg | kel [3, 5]: 0.51 min⁻¹ and 0.53 min⁻¹ and 0.48 min⁻¹ | AUC0->∞ ([3]; dose 9 μg/kg, X ± SD (n = 3)): 99.4 ± 23.6 ng·min/mL | AUC0->∞/Dose ([3]; dose 9 μg/kg, X ± SD (n = 3)): 0.0110 ± 0.0026 kg·min/mL | Co ([3]; dose 9 μg/kg, X ± SD (n = 3)): 46.1 ± 9.5 ng/mL | Vd ([3]; dose 9 μg/kg, X ± SD (n = 3)): 201 ± 43 mL/kg | kel ([3]; dose 9 μg/kg, X ± SD (n = 3)): 0.47 ± 0.02 min⁻¹ | AUC0->∞ [3, 6]: 99.55 ng·min/mL and 75.67 ng·min/mL and 122.89 ng·min/mL | C0->∞/Dose [3, 6]: 0.0052 kg/mL and 0.0040 kg/mL and 0.0061 kg/mL | Co [3, 6]: 46.79 ng/mL and 36.32 ng/mL and 55.30 ng/mL | Vd [3, 6]: 192.35 mL/kg and 247.80 mL/kg and 162.75 mL/kg | kel [3, 6]: 0.47 min⁻¹ and 0.48 min⁻¹ and 0.45 min⁻¹ | AUC0->∞/Dose ([3]; dose […], X ± SD (n = 5)): 0.0062 ± 0.0011 kg·min/mL | Vd ([3]; dose […], X ± SD (n = 5)): 219 ± 68 mL/kg | C0->∞/Dose ([3]; Average over all doses (2.5, 8, 9 μg/kg)): 0.0053 kg/mL | BA ([4]; SC (subcutaneous) dosing): 55.67% | absolute bioavailability ([4]; SC administration, rat model): approximately 56% | maximum absolute bioavailability of insulin ([4]; from oral delivery or any other 100% GI absorption into the portal vein, from intraportal results, rat model): approximately 60%

— patent US20060078622A1, “Pharmaceutical formulations containing microparticles or nanoparticles of a delivery agent” (priority 2004, published 2006)
